The series can be described thus: label from the status in PepcDB records.
On to “MKSSYGSSSNDLHAFVNEIKGEIQLSNINLDPYSFVSPSAYDTAWLSMIEEDINVDDNELKPMFQGCLDWIMCNQNAREGFWMNSTSYTTVADGRDEDGEKDMCILTSTLACVVALQKWNIGCFHLHKGTRYIERNTEMIIGKYINEEGSYPRWFAIKFTGILELAQKLGLHFVFSSRCIEMIKGMFYQRQEIIQREKLVHDCNYKPLLAYLEVLPSKLYVTNQEDIIVKSLDSMDGSLFQSPSATASAFMLTRNTKCLAYLQNLVQKCPNGVPQKYPLNEDLIKLSMVNLIESTGLGEFFGIEIEHVLEQVYSRYEEKDFERMPMSYLADQLHKDSLAFRMLRMHGRDVSPRSFCWFLNDQETRNHLERNIDSFLLVILSVYRATDLMFPGEHDLQEAREYTRNLLEKRRSIKEKMVPIYLNKIMHELSTPWIARLKHLDHRMWIEDKNSNVLSMEKASFLRLHSSYSDKLTHLAARNFEFQQAKYCRELEELTMWVKKWGLSDIGFGREKTTYCYFATVTSLPYEYAIKFGKLAAKTAILITIADDFFDEKGSFNDLEGLTKAVLRWEGEELKSYGNIIFRALDDIVRETANTCRTHHKTDIIVHLRNIWGETFESWLREAEWSKKGHTSSMDEYIRNGMISIAAHTIALSISCLMEPCFPHNKLKPGNYDSITTLLMIIPRLLNDLQSYQKEQEQGKMNSVLLHMKNHPGLEIEDSIAHIEKIIDSKRKEFLEHVLVDGLSDLPKPCKEIHMSCCKVFEMFFNKKNRYDSNTEMLHDIKKALYDPINVYELSEMEPMPLMAHGDEYMILPLLLNSLPNILEFKRKDGYGAMKTSMCFGRSYRVNKRVMASQLDDQHKPLKIVASQRKPVPMMQSIFAPCFY”, for which the protein production entry was “failed”.
Next, “MDDKAFTKELDQWVEQLNECKQLNENQVRTLCEKAKEILTKESNVQEVRCPVTVCGDVHGQFHDLMELFRIGGKSPDTNYLFMGDYVDRGYYSVETVTLLVALKVRYPERITILRGNHESRQITQVYGFYDECLRKYGNANVWKYFTDLFDYLPLTALVDGQIFCLHGGLSPSIDTLDHIRALDRLQEVPHEGPMCDLLWSDPDDRGGWGISPRGAGYTFGQDISETFNHANGLTLVSRAHQLVMEGYNWCHDRNVVTIFSAPNYCYRCGNQAAIMELDDTLKYSFLQFDPAPRRGEPHVTRRTPDYFL”: “failed”.
“MSIITRLFNNSDFEKLNQLCKLYDDLGYPTNENDLKKRLKKITNHDDYFLLLLIKENKIIGLSGMCKMMFYEKNAEYMRILAFVIHSEFRKKGYGKRLLADSEEFSKRLNCKAITLNSGNRNERLSAHKLYSDNGYVSNTSGFTKQL”: the protein production entry is “not failed”.
Next, “MTKYLKYFIISMFRSRGLIFFGLFLILLSLIPNMLSISDSAHYSLKVLNHASRWYGLAILISFSIVSGTLAQMIYFSSSAIIYLHRHSKLSINRYYFESTLGAMVIFGIYALIILFATIVGYSYVSKNIIFPKKLLMLVLFTMLAGLFYFSLSFSLQAIATLLKKAHLIEYLAYFLISLTFLLGYLQVNTSLDVSLLVFLSPLNSILSLLIYGYSGILSFSVEFLLVTSLFYITVLQLISVWSLKRLKEVRIEDKLI”: “failed”; “MKLIKFVRNVVLFILTAIFLAFMLLVSYCMPHYSAAVISGVEVKRMNENENTPNNKEVKTLARDVYFVQTYDPKDQKSVTVYRNEDTRFSFPFYFKFNSADISALAQSLINQQVEVKYYGWRINLFNMFPNVIFLKPLKESTDISKPIFSWILYALLLMGFFISARSVCTLFKSKAH”: “failed”; “MESTKSYDIPILRNVSRSFSVHYRDYLQRCGIFVPKEGNSSGPDAYVVFHNGQTRYVVGFSFKFYHKSEFSKRNIEEEAKKFFKGVVSVLNDESFSSVQLRFQFVMVVCTSYGRSVVFSSEEQNIVEDASYLVTEHSSGSTLNESSRSCLQLVIVSQRNLEMYLGRDNVETLRKIGEASREEFSKDFSVWCETVFESMSNEYVSPLEQSNVTLRVARNIRPRTNEENRMQIEELQTAMKVERSVAASSSLSSSFDWNTFLREYCGLSEEDVAYCLPKVEDIDMDELPAVTKEILRDLGIDKPALRLKIRSSIRSYLANER”: “not failed”.
Next, “MGNSLHQIKCCTSFIHCQNAAVDAPSIAKTLADYLYPAFFHQDLPAPLKISVTGCPNQCGGGVEADIGISGYFATVPRVDDAGLMAANIDFGHLISGCPVGAIRPRQVEGGTTVVINAERCIRCTSCIQVAPEGIKPGPERFVAIAVGGHGGNNRRGPEMAAVVFSRVPARPLDYAAICERVQRIIACWRDRGKRGERLAGFLERLEHHHHHH”: “failed”; “MFDIGWSELLVIAVVLIVVVGPKDLPPMIRAFGKTMAGLRKMAGDFRTQFDEALKEADMDDVRQTISDVRNLNPTNSLRDAMNPLRQLGNEIKSDLQKATSPSDGLSSTAAPATSEPVAPLVNVPEPDMKLPDSPPAVAAAPAPVAAASVAAEKPKRARAKSIATVEAEAVAAKPKRVSRSKAVATPETTVATNASEPASPKPTVKTIAKKATVKKIAAEKSVAVADAKPAKAARTKAAKPKKDEA”: “failed”.
For the sequence “MKKLAIVIPAYKVDFFETVLFSLAQQTCKDFTVYIGEDCSRDDFKSLIEQYSKQLDIVYRRFEVNFGGHDLVAQWNRCIQLTQNEPWLWLFSDDDIMGPRCVEYFFNTIAIDNGAFDIYHFDVKIVDCENQIVRIPTVYPSVIDSETFYRRKASARLDSFVVEYIFLRDIYNCTGGFQHFDLAWGSDIATWVKIGADKGIKTISGDYVYWRKSKKNITPNMDNKMVLRKLTADIEFTHWINEFFHKSSVYRFTKYAFFRLVVHYSQAISKSQIRLLLDKAVGKNIISFNDAFIINWTYRFIQLAKRVKDVLYFLEHHHHHH”, the protein production entry is reported as “not failed”.
In the case of “KEETEIIEGEVVEIQIDRPATGTGSKVGKLTLKTTEMETIYDLGTKMIESLTKDKVQAGDVITIDKATGKISKLGRSFTRAR” it was “not failed”.
Turning to “LRGFVPSSVWLERGVFPPSNEEVIKLGLSPTSMVARLKRQRLADGVVMAIEMSTMPVAYLPDPQAVGTSLYAHLDATGHSVVRALQHIRAVNASGDVAQLAGIRPGEAMLLITRIGFNADNVAIELTDTYCRNDYYDFVAELKR”, the protein production result is “not failed”.
Take “MTASPLLTAFLPLALGIIMLGLGLSLTLADFARVVKYPKPVVVGLVCQILLLPLVCFLIANGFGLESALAVGLMLLAASPGGTTANLFSHLAHGDVALNITLTAVNSLIAILTMPLLVNLSLSWFMASDQAIPLQFAKVMQVFAIVLLPVALGMLIRHFAPAFAARMEKPMKLVAALFLAFTIVLALAKDWQTVVEYAPVVGLAALLFNLLSLTVGYWVPRLLNISKRQAIAIGMEIGIHNGTLAIALALSPSLLNNATMAVPAALYSLIMFFTAAGFGWWVSRGHVAAEPKGETVN”: the protein production result is listed as “failed”.
With “EFVINPNGKSEVCILHEYMQRVLKVRPVYNFFECENPSEPFGASVTIDGVTYGSGTASSKKLAKNKAARATLEILIPDFVKQTSE”, the protein production entry was “not failed”.
In the case of “MSVRVYIGNLPRDIEQAELDAVFAEAGEVSAKLVTDRKTGKSRGFAFATVASDELADALIERFNGTEVQGSTLKLEKAQPRERDNEGGNNRRRSGGGGNDNRRSGKSAPRVISSGPEGFQPDPRWAQELEKLKELLAAQTVS” it was “failed”.
Next, “MKINQLWQEPKQRSKRYYLLDNIFSAITHGIGFGLAIAGLVVLIVKAAHTGSPMRIVTFTIYGACLVLLYLFSTLYHSLVFTRAKNVFQIFDHSSIFLLIAGSYTPYSLVAIGGVWGWTLFGLIWGLTIFGIIYYVFNRGKHVIFDTILYVAMGWLVILSGPYLYVRLSSTGFWLLVGGGIAYTIGAILFSMRSVPFIHTIWHLFIILGSILMYFSVLLYV”: “failed”.
For “SRKVFVGGLPPDIDEDEITASFRRFGPLVVDWPHKAESKSYFPPKGYAFLLFQEESSVQALIDACLEEDGKLYLCVSSPTIKDKPVQIRPWNLSDSDFVMD”, the protein production result is on record as “not failed”.
As for “MDNRSASLHSDIDTVLNNYDYDFAEVEIAVLGNGHINNTYKLTTPEVEFVLQQINHDVFPKTAELSSNAQKINLHLQRQKNIGNYPLSIPQQILSKTGETYSKVGTNYWRLMEFISNSYTLEEVESPEQAALVANAFAEFSCTLSDFPVEELAVIIEDFHDISFRMRQLNEAVENDLQDRLSSCQTLVNFCLDQQDFINHVIDISKKLPLHVTHNDTKINNLLFTEGDTPCAVIDLDTCMPGLLMHDFGDMVRTCCSNLAEDDTNIDAMIIKLDIFSALIQSYQNAFGTKMSALEKDSLIVGTKSVPFSLGTRFLTDYLNGDSYFQVSREKHNLDRAFNQIQLFILLCEAEPELIKLAMQALEHHHHHH”, the protein production result was “failed”.
Regarding “MTVPLYKQIASLIEDSIVDGTLSIDQRVPSTNELAAFHRINPATARNGLTLLVEAGILYKKRGIGMFVSAQAPALIRERRDAAFAATYVAPLIDESIHLGFTRARIHALLDQVAESRGLYK”, the protein production entry is given as “failed”.
On to “MKNNKKGLWGIIVAVGLFLLSKLKWVFAIFKLAKFSTVFSMFLSLGAYAVLYGWKFGVALIYLLFVHEMGHLWAAKRKGIPTSPAIFIPFMGALIGMKEMPKNAKDEAYIAYMGPLFGLLSFLPAIPLYIMTKEPFWALVILLGSMINFFNLIPVSPLDGGRIISVVSTKIWGAGLILLLGYSIYFKSILGGFIVIIGCMELYRVIKRDEPIKELGHKIYGMKEYVTRLEEELKETGAVHRTIYVMHHEMNALRQREREKELQIGELKKMEVLEYLLPKFEPLDYVPYEDEKDEYTIHIREAFEASERKLNEWKTEKEQQENYYKVDAKTKWTVFACYIGLMVILGYTAYEGYIVLQEHLPTRNV”, for which the protein production result is given as “failed”.
Next, “MLAALEVAVPALYAVAIVVLTAYGGNLLWLALVHAASERLRDGPVPDPDDLPVPDDDWPVVTVQLPLYNEAEVAHRLIDACVQLDYPRSRLDIQVLDDSTDATTERVARRVAHWQAEGVNITHVRRDDRTGYKAGALANGLQRARGDLIAIFDADFVPRPSFLRRLVPRFFDAPDLGMVQARWGHLNRDDSLLTKVQAFGLDAHFAIEQRVRELAGCFLNFNGTAGVWRRACIEDAGGWAHDTLTEDLDLSYRAQLQGWRLTYVPAAEAPAELPPDMNALRAQQFRWAKGGAETALKLTGRLWRSAQPWRVKLEGTFHLTAHFAFPFILLAALTHAPLLLLKGIGHGPGEVYFAVMGFGLFGFAGFFLAQLFAQRALHPDWRRRLRLFVPFMAGTMGLSLSNTSAVWQALRGTDTAFIRTPKVGSAGGDGWWESRYAIREVPRIVWGELALAVYSTVGLGVVIGLGEWAAVPFQALFALGFALVTASSLRQALTAQQGPTASAPASSPAA”: “failed”.
In the case of “MNLVGIVGTNSERSTNRKLLRFMAEHFAPQAAIEVLEIKDLPAFDEPENKTAPAAVTAFSKKIAAADGVIIATPEYNHTIPAPLGSALEWIAYTSRVLVNKPVMIVGCSLGALGTSRAQAHLRQILDAPELKARVMPGTEFFLGHSEHVLDDDFNLNNPEKVAELEEHFTEFQDFVIVTNQIVKQADTDRKLEHHHHHH” it was “not failed”.
Take “MIVFKAENLSVGYNGVKAVSNINFSAKQGEIICLLGPNGAGKTTIIRTLSGLLPPIEGEIHINGKSLSTINKKLLAQTLSVVLTEKPSFDVMTAFDVVSLGRFPHTGFFGTITKEHEIKVVEALKTVGALNLIDKYFHILSDGERQKVMLARALVQEPQIIILDEPTTHLDINHKIELLNTLKNLSRTAKLTVILSLHEIDLALKYCDKVMLVENKKVLSFGSPETTVNGETINKLYGIKNASFNPITSSIELKNSEKSNIYVIGGCGFGTPIYRLLSKYNLGFSTGILHENDIDYETAKTMSLRLQSEKPFQKISKISFEKALAAVASSDIIIDSGFPIGETNEKNLNLLNYAVEKNKRVITFRKYFNSTMSYCSNKDALIDFILRLEHHHHHH”: the protein production entry is “failed”.
As for “VFSSEDITETSPDKWLIDGDTPLDEVERAIGYELPEGDYETISGLLFDHANALLKTGDVIEIPLDFEPEDYLNNTSPTQRILRITVLEVERNVPVKLALALLE”, the protein production result was “not failed”.

Values taken from a protein production outcome set (Wang et al. 2014).
